From patent publication US7846710B2, “Cell comprising an intein for the production of a cyclic peptide” (The Penn State Research Foundation, priority 1998, dated 2010)

Target: T1, recombinant Streptomyces antibioticus tyrosinase (Streptomyces antibioticus, UniProt P07524)
T1 construct: expressed in transfected cells; host or cells: E. coli XL1-Blue co-transformed with pDIM-NY (pDIMN-Y) and pARCP-p or pARCP2-6H
T1 sequence (P07524 whole entry, looked up): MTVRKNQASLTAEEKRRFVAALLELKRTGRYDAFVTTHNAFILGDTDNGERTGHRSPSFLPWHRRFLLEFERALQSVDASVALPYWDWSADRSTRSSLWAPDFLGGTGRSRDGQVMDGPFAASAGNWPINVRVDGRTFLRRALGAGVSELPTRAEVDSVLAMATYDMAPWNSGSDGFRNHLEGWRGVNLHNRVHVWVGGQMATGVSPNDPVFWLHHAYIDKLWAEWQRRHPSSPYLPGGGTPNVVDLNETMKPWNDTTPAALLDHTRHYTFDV
Test: In vivo assay on FeCuY plates to detect tyrosinase inhibition (pigment formation) by co-expressed cyclic peptide
Assay type: cell-based, Escherichia coli XL1-Blue
Details: co-expression in tyrosinase expressing XL1-Blue cells on FeCuY plates, L-(+)arabinose (0.5%) induction
From the text: FIG. 7 is a photograph of FeCuY plates used in an in vivo assay to detect tyrosinase inhibition by pseudostellarin F.
The tyrosinase gene (including ORF 438) from Streptomyces antibioticus (Berman et al, Gene 37:101, 1985) was amplified with Vent-polymerase from pIJ702 (ATCC no. 35287) with primers introducing 5′
Ndel and 3′ EcoRI restriction sites. The PCR product was digested with Ndel and EcoRI and ligated into similarly digested pDIMN2 (Ostermeier et al, supra) to generate pDIMN-Y. Transformed ligation mixtures were grown at ambient temperature for 5 days, and colonies that expressed tyrosinase were identified by pigment formation on FeCuY plates [LB agar plates containing ampicillin (200 ug/ml), FeCI3.6H2O (0.2 mM), CuS04.5H2O (0.2 mM), L-tyrosine (0.3 mg/ml, Y) and isopropyl-B-D-galactoside (1 mM)] (Della-Cioppa, G. et al., Biotechnology 8:634, 1990).
Pseudostellarin F production was readily detected in vivo through inhibition of recombinant Streptomyces antibioticus tyrosinase (FIG. 7). In the experiment shown in FIG. 7, XLI-Blue cells were co-transformed with pDIM-NY and either pARCP2-6H (a & b) or pARCP-p (c & d). The cells were plated on FeCuY plates with chloramphenicol (50 ug/ml), either without (a & c) or with (b & d) L-(+)arabinose (0.5%).

cyclo-[CHMHHHHHHGAGAA] (backbone cyclized) [cyclic peptide from pARCP2-6H, unrelated cyclic peptide encoded by plasmid pARCP2-6H, used as negative control]
tyrosinase inhibition (pigment formation): failed to inhibit tyrosinase

cyclo-[Ser-Gly-Gly-Tyr-Leu-Pro-Pro-Leu] (SGGYLPPL; backbone cyclized; printed: Ser-Gly-Gly-Tyr-Leu-Pro-Pro-Leu) [pseudostellarin F, backbone cyclic peptide produced in E. coli from pARCP-p by intein-mediated cyclization]
tyrosinase inhibition (pigment formation): dramatically reduced pigment formation
